For experiment [1], the target named is human ObR long form, expressed on transfected cells (human) (UniProt P48357). The experiment is described as follows: cell-based or functional assay.
The target in experiment [2] is T1, murine short form ObR (clone famj5312), expressed on COS cells (mouse, UniProt P48356 23-889).
T1 construct: also called mouse ObR; mouse short form
T1 sequence: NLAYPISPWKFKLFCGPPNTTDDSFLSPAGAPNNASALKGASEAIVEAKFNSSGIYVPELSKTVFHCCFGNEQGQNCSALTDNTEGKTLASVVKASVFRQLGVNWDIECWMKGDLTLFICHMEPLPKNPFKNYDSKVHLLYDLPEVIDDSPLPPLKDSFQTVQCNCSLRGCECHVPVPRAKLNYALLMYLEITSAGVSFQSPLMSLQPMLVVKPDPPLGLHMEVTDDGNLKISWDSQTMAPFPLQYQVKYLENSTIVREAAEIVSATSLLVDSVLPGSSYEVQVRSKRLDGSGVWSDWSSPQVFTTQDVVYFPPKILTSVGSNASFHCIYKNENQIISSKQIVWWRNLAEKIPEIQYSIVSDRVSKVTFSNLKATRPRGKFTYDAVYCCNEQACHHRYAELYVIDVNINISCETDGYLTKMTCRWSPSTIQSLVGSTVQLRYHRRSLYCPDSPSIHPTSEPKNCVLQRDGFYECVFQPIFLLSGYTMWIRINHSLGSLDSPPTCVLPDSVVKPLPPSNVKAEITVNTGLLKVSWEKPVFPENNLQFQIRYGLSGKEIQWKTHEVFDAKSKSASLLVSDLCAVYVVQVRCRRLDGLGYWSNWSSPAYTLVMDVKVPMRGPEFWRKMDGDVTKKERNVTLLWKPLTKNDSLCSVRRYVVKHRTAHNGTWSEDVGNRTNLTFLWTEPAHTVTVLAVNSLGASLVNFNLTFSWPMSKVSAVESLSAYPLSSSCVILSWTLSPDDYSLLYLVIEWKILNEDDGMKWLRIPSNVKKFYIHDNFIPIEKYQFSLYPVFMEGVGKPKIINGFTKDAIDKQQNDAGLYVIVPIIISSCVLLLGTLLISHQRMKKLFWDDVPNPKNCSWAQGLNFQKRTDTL
The experiment is described as follows: 1 nM AP-OB on transfected COS cells; reference human long form ObR; laid to surface expression by the filing. As for the experimental part: COS-1, H-35 and Hep3B cells were transfected with plasmid DNA by the DEAE-dextran method (Lopata et al., 1989, *Nucleic Acids Res.* 12:5707–5717); HepG2 cells by the calcium phosphate method (Graham et al., 1973, *Virology* 52:456–461); and COS-7 cells by the lipofectamine method. Subcultures of COS cells were maintained for 16 hours in serum-free medium prior to the activation of STAT proteins by treatment with cytokines for 15 minutes. DNA binding by STAT proteins was determined by EMSA on whole cell extracts as described in Sadowski et al. (1993, *Science* 26:1739–1744). […] CAT activities were quantitated by testing serial dilutions of cell extracts, normalized to the expression of the cotransfected marker plasmid pIE-MUP (Morella et al., 1995, *J. Biol. Chem.* 270:[…]), and are expressed relative the value of the untreated control cultures in each experimental series (defined as =1.0). Quantitative cell surface binding of the AP-OB fusion protein (Section 6) was done essentially as outlined by Cheng and Flanagan (1994, Cell 79:157–168).
To determine whether ObR has the ability to recruit the cellular signaling machinery, COS cells were transiently transfected with expression vectors for the two representative forms of ObR, mouse short form (also corresponding to a mutated form detected in db/db mice) and human long form. […]

The target of experiment [3] is T1, murine short form ObR (clone famj5312), …. Kind of experiment: Scatchard transformation of AP-OB binding to transfected COS cells. The method, then:
(§1) FIG. 2B-1 Binding isotherm and Scatchard analysis of the interaction of AP-Ob and ObR. COS-7 cells transfected with the obR cDNA were incubated with various concentrations of the AP-Ob (mouse) fusion protein FIG. 2B-2. Scatchard transformation is shown as an inset. Paragraph beginning at page 16, line 3, please replace the paragraph with the following text:
(§2) After transient transfection of the ObR clone into COS cells, strong binding of 1 nM murine AP-Ob is detected (relative to mock transfected COS cells or ObR transfected COS cells incubated with unfused AP) (FIG. 2A). […] A fusion between AP and human Ob also binds mouse ObR with high affinity, as does a fusion protein with mouse leptin at the N-terminus and AP at the C-terminus (Ob-AP).
(§3) To determine whether ObR has the ability to recruit the cellular signaling machinery, COS cells were transiently transfected with expression vectors for the two representative forms of ObR, mouse short form (also corresponding to a mutated form detected in db/db mice) and human long form. Two days after transfection, cells were incubated in 1 nM human or mouse alkaline phosphatase-OB, and cell surface expression of ObR was detected as indicated by specific binding of the alkaline phosphatase-OB (AP-OB) fusion protein.

The target in experiment [4] is T2, human ObR long form, expressed on transfected cells (human, UniProt P48357 21-1165).
T2 construct: also called human long form; long form of ObR
T2 sequence: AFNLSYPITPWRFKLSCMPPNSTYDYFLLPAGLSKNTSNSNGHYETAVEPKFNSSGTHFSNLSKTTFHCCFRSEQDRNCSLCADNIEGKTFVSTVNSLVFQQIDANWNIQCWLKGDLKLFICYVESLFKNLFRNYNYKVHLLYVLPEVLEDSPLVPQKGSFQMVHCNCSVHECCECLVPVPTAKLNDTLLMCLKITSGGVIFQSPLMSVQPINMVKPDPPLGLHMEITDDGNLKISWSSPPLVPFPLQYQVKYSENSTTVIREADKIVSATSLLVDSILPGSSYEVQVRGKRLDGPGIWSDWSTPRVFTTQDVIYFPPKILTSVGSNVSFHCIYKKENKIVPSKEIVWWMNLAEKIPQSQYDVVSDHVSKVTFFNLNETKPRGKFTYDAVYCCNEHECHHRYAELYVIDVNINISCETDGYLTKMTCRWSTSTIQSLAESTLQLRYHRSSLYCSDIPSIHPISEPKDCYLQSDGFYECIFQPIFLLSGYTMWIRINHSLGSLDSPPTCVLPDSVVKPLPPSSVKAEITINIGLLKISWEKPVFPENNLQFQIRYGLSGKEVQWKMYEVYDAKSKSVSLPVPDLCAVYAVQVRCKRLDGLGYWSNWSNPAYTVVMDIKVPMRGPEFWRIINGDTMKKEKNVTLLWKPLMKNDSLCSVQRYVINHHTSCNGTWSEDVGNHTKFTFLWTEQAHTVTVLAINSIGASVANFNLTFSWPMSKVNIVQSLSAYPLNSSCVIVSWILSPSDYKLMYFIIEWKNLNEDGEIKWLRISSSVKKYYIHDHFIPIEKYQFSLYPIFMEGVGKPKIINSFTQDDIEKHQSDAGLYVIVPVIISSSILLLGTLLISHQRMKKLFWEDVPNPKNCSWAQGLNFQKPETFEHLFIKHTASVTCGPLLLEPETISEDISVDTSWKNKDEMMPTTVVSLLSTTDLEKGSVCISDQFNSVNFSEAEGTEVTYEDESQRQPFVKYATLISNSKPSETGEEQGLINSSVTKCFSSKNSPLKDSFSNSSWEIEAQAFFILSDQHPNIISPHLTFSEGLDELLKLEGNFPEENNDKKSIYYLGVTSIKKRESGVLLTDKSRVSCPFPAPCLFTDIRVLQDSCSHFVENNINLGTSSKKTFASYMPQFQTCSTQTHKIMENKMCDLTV
The description is as above. As for the experimental part: as §1, §2, §3

For experiment [5], the target named is T1, murine short form ObR (clone famj5312), …. Kind of experiment: AP activity bound to COS cells transfected with the ObR clone. As for the experimental part:
(§4) In Situ Fusion Protein Binding. Quartered mouse brains, isolated choroid plexus, cells, and cell lines were rinsed once with HBHA (Hank's balanced salt solution with 0.5 mg/ml BSA, 0.1% NaN_3, 20 mM HEPES [pH 7.0]) in 12-well plates. Tissue was then incubated with tissue culture supernatants containing AP-Ob fusion, Ob-AP fusion, or control supernatants (i.e., supernatants containing unfused AP only, containing AP-OB or OB-AP fusion proteins plus 80-fold molar excess of *E. coli*-derived recombinant OB, or supernatants from mock-transfected COS cells), for 75 minutes with gentle rotation, at room temperature. Samples were then treated as described previously (Cheng, H. J. and Flanagan, J. G., 1994, *Cell* 79:157–168).
as §2

For experiment [6], the target named is T3, Ob receptor in mouse choroid plexus tissue (mouse, UniProt P48356 23-889).
T3 construct: Native receptor in quartered mouse brain
T3 sequence: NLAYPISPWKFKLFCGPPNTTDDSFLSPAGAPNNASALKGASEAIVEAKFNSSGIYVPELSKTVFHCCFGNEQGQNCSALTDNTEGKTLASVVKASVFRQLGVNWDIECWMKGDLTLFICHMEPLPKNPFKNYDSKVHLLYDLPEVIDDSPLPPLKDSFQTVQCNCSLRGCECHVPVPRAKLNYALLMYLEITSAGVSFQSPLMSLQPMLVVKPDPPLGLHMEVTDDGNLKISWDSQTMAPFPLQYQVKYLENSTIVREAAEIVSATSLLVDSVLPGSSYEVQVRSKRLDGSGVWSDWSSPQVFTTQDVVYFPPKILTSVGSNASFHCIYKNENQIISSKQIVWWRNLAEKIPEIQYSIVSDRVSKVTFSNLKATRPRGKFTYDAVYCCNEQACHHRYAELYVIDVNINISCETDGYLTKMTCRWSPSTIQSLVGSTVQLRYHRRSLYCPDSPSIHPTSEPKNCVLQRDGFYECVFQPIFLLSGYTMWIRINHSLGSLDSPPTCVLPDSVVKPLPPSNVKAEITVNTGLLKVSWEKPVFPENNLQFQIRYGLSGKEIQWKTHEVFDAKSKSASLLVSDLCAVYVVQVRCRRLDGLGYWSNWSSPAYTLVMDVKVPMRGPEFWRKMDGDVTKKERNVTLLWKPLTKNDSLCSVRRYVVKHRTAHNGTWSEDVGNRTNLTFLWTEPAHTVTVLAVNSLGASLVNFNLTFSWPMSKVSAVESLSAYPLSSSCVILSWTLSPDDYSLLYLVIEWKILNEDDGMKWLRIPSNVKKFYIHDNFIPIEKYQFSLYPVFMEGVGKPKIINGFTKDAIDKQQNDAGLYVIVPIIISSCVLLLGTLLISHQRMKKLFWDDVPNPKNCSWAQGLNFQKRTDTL
Kind of experiment: AP staining of quartered mouse brain tissue. The method, then:
as §4

This note sets out measurements from patent US6977240 (Takeda / Millennium, dated 2005).

Turning to “leptin (Section 16, species not stated) (ligand)”, in experiment [1], the pIL6RE-SEAP reporter activity in 293 cells, 100 ng/ml leptin for 24 hours worked out at 8 fold.

B1: mouse AP-Ob fusion protein (ligand, UniProt P41160 22-167, looked up, not shown: large carriers)
chain: VPIQKVQDDTKTLIKTIVTRINDISHTQSVSAKQRVTGLDFIPGLHPILSLSKMDQTLAVYQQVLTSLPSQNVLQIANDLENLRDLLHLLAFSKSCSLPQTSGLQKPESLDGVLEASLYSTEVVALSRLQGSLQDILQQLDVSPEC
notes: mature; AP at the N-terminus, predicted mature Ob at the C-terminus; used as COS-7 conditioned medium; also called murine AP-Ob; AP-Ob (mouse)
As usually defined, the Kd is a measure of binding affinity in units of concentration. High values mean lower affinity, low ones higher affinity. As to B1, the “fold binding against the long form” value in experiment [2] is roughly 10 fold. For the same molecule, the dissociation constant (Kd) was 0.7 nM in experiment [3] and 1 nM in experiment [4].

B2: unfused AP (alkaline phosphatase) (enzyme, UniProt P05187 23-511, looked up)
chain: IIPVEEENPDFWNREAAEALGAAKKLQPAQTAAKNLIIFLGDGMGVSTVTAARILKGQKKDKLGPEIPLAMDRFPYVALSKTYNVDKHVPDSGATATAYLCGVKGNFQTIGLSAAARFNQCNTTRGNEVISVMNRAKKAGKSVGVVTTTRVQHASPAGTYAHTVNRNWYSDADVPASARQEGCQDIATQLISNMDIDVILGGGRKYMFRMGTPDPEYPDDYSQGGTRLDGKNLVQEWLAKRQGARYVWNRTELMQASLDPSVTHLMGLFEPGDMKYEIHRDSTLDPSLMEMTEAALRLLSRNPRGFFLFVEGGRIDHGHHESRAYRALTETIMFDDAIERAGQLTSEEDTLSLVTADHSHVFSFGGYPLRGSSIFGLAPGKARDRKAYTVLLYGNGPGYVLKDGARPDVTESESGSPEYRQQSAVPLDEETHAGEDVAVFARGPQAHLVHGVQEQTFIAHVMAFAACLEPYTACDLAPPAGTTDAAHPG
notes: Control; also called control AP
On to B2, for which the binding result in experiment [5] and in experiment [6] was “no binding” each time.
